For this test, the target named is latency-associated peptide (LAP) of TGFβ1 (human (endogenous in human skin fibroblasts)) (UniProt P01137).

In turn, “mature TGFβ1 ligand (from UniProt P01137 279-390)” yielded a luciferase activity of mink lung TGFβ1 reporter cells given heat-treated (80 °C, 10 min) DOC-insoluble fractions of ML-II fibroblasts of 3 fold.

(Values after PMC7277838.)
